Measurements from patent publication US20210122827A1.

Molecular target: human GLP-1 receptor (human) (UniProt P43220)
Assay: cell-based or functional assay

human GLP-1 receptor (human), sequence (P43220 24-463): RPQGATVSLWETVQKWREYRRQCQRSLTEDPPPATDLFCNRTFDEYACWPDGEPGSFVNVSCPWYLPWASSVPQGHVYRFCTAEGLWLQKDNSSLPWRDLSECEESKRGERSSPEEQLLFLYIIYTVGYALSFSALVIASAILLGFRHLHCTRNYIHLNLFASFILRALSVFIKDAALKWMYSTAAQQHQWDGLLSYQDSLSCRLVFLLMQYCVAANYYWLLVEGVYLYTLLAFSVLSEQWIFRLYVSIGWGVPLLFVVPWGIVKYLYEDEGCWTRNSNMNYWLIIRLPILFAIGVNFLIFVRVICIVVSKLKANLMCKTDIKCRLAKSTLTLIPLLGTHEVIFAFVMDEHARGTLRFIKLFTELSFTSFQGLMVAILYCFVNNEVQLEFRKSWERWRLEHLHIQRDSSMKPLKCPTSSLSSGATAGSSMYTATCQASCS

EC50, CRE-Luciferase reporter gene assay on CHO-DHFR- cells co-expressing hGLP1R: 16 pM
Substance: GMA102 (proprietary fusion protein of GLP-1R antibody and GLP-1)
